{"source": "paper PMC3305377", "about": "“Insights into the structure and activity of prototype foamy virus RNase H”", "target": "PFV PR-RT (protease-reverse transcriptase) (prototype foamy virus, UniProt P14350 1-751)", "experiment": "fluorescence anisotropy; 10 mM EDTA, no Mg2+; 5 nM substrate; 50 mM Tris/HCl pH 8.0, 80 mM KCl, 10 mM EDTA, 0.5 mM DTT, 25 C", "conditions": "protein: recombinant; label: 5'-DY647 on RNA; 24 bp hybrid; RNA template overhangs 5' 5 nt and 3' 11 nt"}
{"binder": "24/40-mer DNA/RNA primer/template (DNA:RNA) RNA: CUAAUUCCGCUUUCCCCUCUCCUGGUGAUCCUUUCCAUCC DNA: ATCACCAGGAGAGGGGAAAGCGGA", "values": [{"measurement": "Kd", "value": "9.1 ± 1.7", "unit": "nM"}]}
